Target: T1, recombinant human cytokine TNFα (human, UniProt P01375 77-233)
T1 construct: Recombinant human TNFα used for immunisation, panning and ELISA; also called human TNFα; rhTNF-α
Experiment: phage display selection and ELISA on coated TNFα
Method: Phage selection rounds, amplification and recovery: There were performed 4 rounds of phage selection with TNFα 1 μg in PBS in an ELISA plate, sealed and incubating over night at 4° C., the cytokine is eliminated and blocking with 150 μl of PBS-BSA (3%), sealed and incubated 1 hr at 37° C.; discarding and adding 50 μl of phage-antibodies for each well, sealed and incubated with TBS-Tween 20 (0.05%) 150 for each well using the pipette to agitate. The solution is discarded and the phage-antibodies specific for TNFα are harvested after adding 50 μl per well of TBS-Trypsin [10 mg/ml]. The plate is sealed and incubated during 30 minutes, 37° C. The phage-antibodies are recovered and used to infect a culture of E. coli ER2537 (2 ml) electro-compentents (DO₆₀₀=1), during 15 minutes at room temperature. The selected phage-antibodies are amplified using serial dilutions incubating the transformants in SB media with carbencillin and helper phage VCSM13 with kanamycin. The phage-antibodies were recovered from the infected cultures of ER2537 cells by centrifugations using first PEG-8000 4% and NaCl 3, and PBS_BSA 1% (2 ml) filtering the supernatant with a 0.22 μm membrane, using 50 μl para to be selected according to the TNFα binding. […]

T1 sequence (P01375 77-233 limits assumed): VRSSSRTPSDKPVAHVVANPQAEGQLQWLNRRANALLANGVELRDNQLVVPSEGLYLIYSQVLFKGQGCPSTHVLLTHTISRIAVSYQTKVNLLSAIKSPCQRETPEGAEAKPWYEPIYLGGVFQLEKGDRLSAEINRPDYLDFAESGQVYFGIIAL

binding result: binds
B1: vNAR clone 65 (anti-TNFα vNAR from Heterodontus francisci) (other)
chain: ASLDQTPRTATRETGESLTVNCVLVDANYGLYNTSWYRNNPGSTDREHITIGGRYVESVNKGAKSFSLQIKDMTVEDSGTYYCKARESDYNRVGIRDYKDYDGAGTVLTVN
notes: Shark IgNAR single variable domain (vNAR), expressed from pCOMb3X in E. coli; also called TNF65

Reference: US20110129473A1 (LABORATORIOS SILANES S A DE C V, published 2011)
